{
  "source": "patent US20130122005A1",
  "about": "(published 2013)",
  "binders": {"B1": {"name": "antibody 60833 (antibody, human IgG1, lambda, V domains shown)", "VH": "QVELVESGGGLVQPGGSLRLSCAASGFTFTSYWMSWVRQAPGKGLELVSSITSYGSFTYYADSVKGRFTISRDNSKNTLYLQMNSLRAEDTAVYYCARNMYTHFDSWGQGTLVTVSS", "VL": "DIVLTQPPSVSGAPGQRVTISCSGSSSNIGSNSVSWYQQLPGTAPKLLIYDNSKRPSGVPDRFSGSKSGTSASLAITGLQSEDEADYYCQSRDTYGYYWVFGGGTKLTVLG"}, "B2": {"name": "antibody 60814 (antibody, human IgG1, lambda, V domains shown)", "VH": "QVELVESGGGLVQPGGSLRLSCAASGFTFSNYWMHWVRQAPGKGLEWVSGISGWSSWTYYADSVKGRFTISRDNSKNTLYLQMNSLRAEDTAVYYCARFGIDAYTKVYFDYWGQGTLVTVSS", "VL": "DIELTQPPSVSVAPGQTARISCSGDNIPLKYVSWYQQKPGQAPVLVIHDDNKRPSGIPERFSGSNSGNTATLTISGTQAEDEADYYCSSWDTLDIFNVFGGGTKLTVLG"}, "B3": {"name": "antibody 60819 (antibody, human IgG1, lambda, V domains shown)", "VH": "B2 VH", "VL": "B2 VL with S88Q, W90Y, T92Y, L93F, D94P, I95K, N97V"}},
  "assay_in_all_cases": "cell-based or functional assay",
  "key": {"human IGF-1 [1]": {"molecular_target": "T1, human IGF-1 (human, UniProt P05019 49-118)", "T1 sequence (P05019 49-118)": "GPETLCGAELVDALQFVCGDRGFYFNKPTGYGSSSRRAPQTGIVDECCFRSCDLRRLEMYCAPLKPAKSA"}, "human IGF-2 [2]": {"molecular_target": "T2, human IGF-2 (human, UniProt P01344 25-91)", "T2 sequence (P01344 25-91 limits assumed)": "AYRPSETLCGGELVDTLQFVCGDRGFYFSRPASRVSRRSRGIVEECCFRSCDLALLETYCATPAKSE"}, "human IGF-1 [3]": {"molecular_target": "T1, human IGF-1", "remark": "listed apart in the source"}, "human IGF-2 [4]": {"molecular_target": "T2, human IGF-2", "remark": "listed apart in the source"}, "human IGF-2 [5]": {"molecular_target": "T2, human IGF-2", "remark": "listed apart in the source"}},
  "note": "Substitutions are numbered along the chain they refer to.",
  "data": [
    {"binder": "B1", "values": [
      {"measurement": "IC50, IGF-1 induced COLO-205 cell proliferation", "setting": "human IGF-1 [1]", "value": 0.165, "unit": "µg/mL"},
      {"measurement": "IC50, IGF-1 induced MCF7 cell proliferation", "setting": "human IGF-1 [1]", "value": 0.0386, "unit": "µg/mL"},
      {"measurement": "IC50, IGF-2 induced COLO 205 cell proliferation", "setting": "human IGF-2 [2]", "value": 0.632, "unit": "µg/mL"},
      {"measurement": "IC50, IGF-2 induced MCF7 cell proliferation", "setting": "human IGF-2 [2]", "value": 0.0812, "unit": "µg/mL"},
      {"measurement": "IC50, IGF-1 (20 ng/mL) induced IGF-1R phosphorylation, cell-based ELISA", "setting": "human IGF-1 [3]", "value": 0.09, "unit": "µg/mL"},
      {"measurement": "IC50, IGF-2 (100 ng/mL) induced IGF-1R phosphorylation, cell-based ELISA", "setting": "human IGF-2 [4]", "value": 1.12, "unit": "µg/mL"},
      {"measurement": "IC50, IGF-2 (100 ng/mL) induced IR-A phosphorylation, cell-based ELISA", "setting": "human IGF-2 [5]", "value": 0.82, "unit": "µg/mL"}
    ]},
    {"binder": "B2", "values": [
      {"measurement": "IC50, IGF-1 induced COLO-205 cell proliferation", "setting": "human IGF-1 [1]", "value": 0.135, "unit": "µg/mL"},
      {"measurement": "IC50, IGF-1 induced MCF7 cell proliferation", "setting": "human IGF-1 [1]", "value": 0.0241, "unit": "µg/mL"},
      {"measurement": "IC50, IGF-2 induced COLO 205 cell proliferation", "setting": "human IGF-2 [2]", "value": 0.576, "unit": "µg/mL"},
      {"measurement": "IC50, IGF-2 induced MCF7 cell proliferation", "setting": "human IGF-2 [2]", "value": 0.0782, "unit": "µg/mL"}
    ]},
    {"binder": "B3", "values": [
      {"measurement": "IC50, IGF-1 induced COLO-205 cell proliferation", "setting": "human IGF-1 [1]", "value": 0.217, "unit": "µg/mL"},
      {"measurement": "IC50, IGF-1 induced MCF7 cell proliferation", "setting": "human IGF-1 [1]", "value": 0.054, "unit": "µg/mL"},
      {"measurement": "IC50, IGF-2 induced COLO 205 cell proliferation", "setting": "human IGF-2 [2]", "value": 0.101, "unit": "µg/mL"},
      {"measurement": "IC50, IGF-2 induced MCF7 cell proliferation", "setting": "human IGF-2 [2]", "value": 0.0408, "unit": "µg/mL"}
    ]}
  ]
}
